From publication PMC10406861

Experiments:
[1] = target: Histone H2A-H2B dimer (H2B T112C labeled with Cy5.5) (X. laevis) (UniProt P06897)
[2] = target: Histone H2A-H2B dimer (H2B T112C labeled with Cy5.5) (X. laevis) (UniProt P06897); remark: listed apart in the source

Q: Which results are given for “6xHis-Yeast nucleosome assembly protein 1 (Nap1) (from UniProt P25293 1-417) (natural protein)”?
A: rate constant of H2A-H2B exchange between CpG methylated nucleosomes (three-color smFRET), in the presence of Nap1 [1]: 626 M⁻¹ s⁻¹; rate constant of H2A-H2B exchange between nucleosomes containing H3KS56ac (three-color smFRET), in the presence of Nap1 [2]: 1380 M⁻¹ s⁻¹
